B1: phosphofructokinase 1 (PFK1): OGT overexpression (protein)
parent chain: MAAVDLEKLRASGAGKAIGVLTSGGDAQGMNAAVRAVTRMGIYVGAKVFLIYEGYEGLVEGGENIKQANWLSVSNIIQLGGTIIGSARCKAFTTREGRRAAAYNLVQHGITNLCVIGGDGSLTGANIFRSEWGSLLEELVAEGKISETTARTYSHLNIAGLVGSIDNDFCGTDMTIGTDSALHRIMEVIDAITTTAQSHQRTFVLEVMGRHCGYLALVSALASGADWLFIPEAPPEDGWENFMCERLGETRSRGSRLNIIIIAEGAIDRNGKPISSSYVKDLVVQRLGFDTRVTVLGHVQRGGTPSAFDRILSSKMGMEAVMALLEATPDTPACVVTLSGNQSVRLPLMECVQMTKEVQKAMDDKRFDEATQLRGGSFENNWNIYKLLAHQKPPKEKSNFSLAILNVGAPAAGMNAAVRSAVRTGISHGHTVYVVHDGFEGLAKGQVQEVGWHDVAGWLGRGGSMLGTKRTLPKGQLESIVENIRIYGIHALLVVGGFEAYEGVLQLVEARGRYEELCIVMCVIPATISNNVPGTDFSLGSDTAVNAAMESCDRIKQSASGTKRRVFIVETMGGYCGYLATVTGIAVGADAAYVFEDPFNIHDLKVNVEHMTEKMKTDIQRGLVLRNEKCHDYYTTEFLYNLYSSEGKGVFDCRTNVLGHLQQGGAPTPFDRNYGTKLGVKAMLWLSEKLREVYRKGRVFANAPDSACVIGLKKKAVAFSPVTELKKDTDFEHRMPREQWWLSLRLMLKMLAQYRISMAAYVSGELEHVTRRTLSMDKGF
B2: phosphofructokinase 1 (PFK1): S529A (protein)
parent chain: B1 parent chain
B3: phosphofructokinase 1 (PFK1): PUGNAc (protein)
parent chain: B1 parent chain

What was measured:
[1] = native gel electrophoresis of immunopurified Flag-PFK1; details: glycan gained; control: Flag-PFK1 from untreated 293T cells
[2] = co-immunoprecipitation with Flag-PFK1; details: glycan gained; control: WT Flag-PFK1 without OGT overexpression
[3] = NADPH level under hypoxic conditions; details: glycan lost; control: WT PFK1 H1299 knock-in cells, hypoxia
[4] = lactate production with and without OGT overexpression; details: glycan lost; control: WT PFK1 H1299 knock-in cells
[5] = GSH level under hypoxic conditions; details: glycan lost; control: WT PFK1 H1299 knock-in cells, hypoxia
[6] = proliferation with and without OGT overexpression; details: glycan lost; control: WT PFK1 H1299 knock-in cells, hypoxia
[7] = co-immunoprecipitation after OGT overexpression; details: glycan lost; control: WT Flag-PFK1
[8] = 14CO2 release from [1-14C]- vs [6-14C]-glucose; details: glycan lost; control: WT PFK1 H1299 knock-in cells
[9] = colorimetric NADPH assay; details: glycan lost; control: WT PFK1 H1299 knock-in cells
[10] = monochlorobimane fluorimetric GSH assay; details: glycan lost; control: WT PFK1 H1299 knock-in cells
[11] = glycolytic rate with and without OGT overexpression; details: glycan lost; control: WT PFK1 H1299 knock-in cells
[12] = [1,2-13C]-glucose labelling, LC-MS; details: glycan lost; control: WT PFK1 H1299 knock-in cells
[13] = untargeted flow-injection mass spectrometry metabolite profiling; details: glycan lost; control: WT PFK1 H1299 knock-in cells

| Protein | oligomerisation [1] | oligomerisation [2] | other: cellular NADPH level [3] | other: OGT-induced decrease in lactate production, other: percent decrease [4] | other: cellular GSH level [5] | other: OGT-induced increase in proliferation [6] | other: OGT-induced loss of subunit co-immunoprecipitation [7] | other: OGT-induced increase in PPP flux [8] | other: OGT-induced increase in NADPH, fold_change [9] | other: OGT-induced increase in GSH, fold_change [10] | other: OGT-induced decrease in glycolytic rate, other: percent decrease [11] | other: OGT-induced increase in PPP flux, fold_change [12] | other: steady-state metabolite concentrations [13] |
| --- | --- | --- | --- | --- | --- | --- | --- | --- | --- | --- | --- | --- | --- |
| B1 | decreases | decreases | – | – | – | – | – | – | – | – | – | – | – |
| B2 | – | – | decreases | abolishes | decreases | abolishes | abolishes | abolishes | abolishes | decreases | abolishes | abolishes | decreases |
| B3 | decreases | – | – | – | – | – | – | – | – | – | – | – | – |
